Experimental data as given in patent US20050182242A1, “Global analysis of protein activities using proteome chips” (priority 2001, published 2005).

B1: BPL1: yeast GST-HisX6 fusion protein on proteome chip (protein, UniProt P48445 1-690, looked up)
Biotin--protein ligase: MNVLVYNGPGTTPGSVKHAVESLRDFLEPYYAVSTVNVKVLQTEPWMSKTSAVVFPGGADLPYVQACQPIISRLKHFVSKQGGVFIGFCAGGYFGTSRVEFAQGDPTMEVSGSRDLRFFPGTSRGPAYNGFQYNSEAGARAVKLNLPDGSQFSTYFNGGAVFVDADKFDNVEILATYAEHPDVPSSDSGKGQSENPAAVVLCTVGRGKVLLTGPHPEFNVRFMRKSTDKHFLETVVENLKAQEIMRLKFMRTVLTKTGLNCNNDFNYVRAPNLTPLFMASAPNKRNYLQEMENNLAHHGMHANNVELCSELNAETDSFQFYRGYRASYDAASSSLLHKEPDEVPKTVIFPGVDEDIPPFQYTPNFDMKEYFKYLNVQNTIGSLLLYGEVVTSTSTILNNNKSLLSSIPESTLLHVGTIQVSGRGRGGNTWINPKGVCASTAVVTMPLQSPVTNRNISVVFVQYLSMLAYCKAILSYAPGFSDIPVRIKWPNDLYALSPTYYKRKNLKLVNTGFEHTKLPLGDIEPAYLKISGLLVNTHFINNKYCLLLGCGINLTSDGPTTSLQTWIDILNEERQQLHLDLLPAIKAEKLQALYMNNLEVILKQFINYGAAEILPSYYELWLHSNQIVTLPDHGNTQAMITGITEDYGLLIAKELVSGSSTQFTGNVYNLQPDGNTFDIFKSLIAKKVQS
modifications: GST-HisX6 tag
notes: yeast GST-HisX6 fusion protein on proteome chip
B2: PAT1: yeast GST-HisX6 fusion protein on proteome chip (protein, UniProt P25644 2-796, looked up)
Deadenylation-dependent …: SFFGLENSGNARDGPLDFEESYKGYGEHELEENDYLNDETFGDNVQVGTDFDFGNPHSSGSSGNAIGGNGVGATARSYVAATAEGISGPRTDGTAAAGPLDLKPMESLWSTAPPPAMAPSPQSTMAPAPAPQQMAPLQPILSMQDLERQQRQMQQQFMNFHAMGHPQGLPQGPPQQQFPMQPASGQPGPSQFAPPPPPPGVNVNMNQMPMGPVQVPVQASPSPIGMSNTPSPGPVVGATKMPLQSGRRSKRDLSPEEQRRLQIRHAKVEKILKYSGLMTPRDKDFITRYQLSQIVTEDPYNEDFYFQVYKIIQRGGITSESNKGLIARAYLEHSGHRLGGRYKRTDIALQRMQSQVEKAVTVAKERPSKLKDQQAAAGNSSQDNKQANTVLGKISSTLNSKNPRRQLQIPRQQPSDPDALKDVTDSLTNVDLASSGSSSTGSSAAAVASKQRRRSSYAFNNGNGATNLNKSGGKKFILELIETVYEEILDLEANLRNGQQTDSTAMWEALHIDDSSYDVNPFISMLSFDKGIKIMPRIFNFLDKQQKLKILQKIFNELSHLQIIILSSYKTTPKPTLTQLKKVDLFQMIILKIIVSFLSNNSNFIEIMGLLLQLIRNNNVSFLTTSKIGLNLITILISRAALIKQDSSRSNILSSPEISTWNEIYDKLFTSLESKIQLIFPPREYNDHIMRLQNDKFMDEAYIWQFLASLALSGKLNHQRIIIDEVRDEIFATINEAETLQKKEKELSVLPQRSQELDTELKSIIYNKEKLYQDLNLFLNVMGLVYRDGEISELK
modifications: GST-HisX6 tag
notes: as for B1
B3: YER046W: yeast GST-HisX6 fusion protein on proteome chip (protein, UniProt P40031 1-143, looked up)
Sporulation-specific protein …: MGKNHFLKDFSALPEDVLIENERGITLLGYPLFSPKILLPHVDPPQFQRLNTENGSLIALSKNTISNFIELYPIDLSTERTAGSSSSQMTKWFVLMDYKEKYDIDDQGWCYSWNFNNSRWKSKNGLVRRRVWVRLPTTSHGLD
modifications: GST-His6 tag
notes: as for B1
B4: RTG3: yeast GST-HisX6 fusion protein on proteome chip (protein, UniProt P38165 1-486, looked up)
Retrograde regulation protein …: MMNNNESEAENQRLLDELMNQTKVLQETLDFSLVTPTPHHNDDYKIHGSAYPGGETPAQQHEKLSYINTHNSNDNNNLMGSQARSNSQTPTASTIYEEAESQSSYLDDMFRTSQGGRPVTQNSISSIGQGPLRSSYSMAYDSPVDRAMNTPLQQQEGLKAELPHDFLFQHGTDDTMYNLTDDLSSSLSSSINSDMMTPNTYSSSFSYNPQSLGPASVSSTYSPKVRSPSSSFRAGSFLSSSFRHGSINTPRTRHTSISSNMTENIGPGSVPKILGGLTSDEKLRRKREFHNAVERRRRELIKQKIKELGQLVPPSLLNYDDLGKQIKPNKGIILDRTVEYLQYLAEILEIQARKKKALLAKIKELEEKKSSVAALSPFTNNHHASSGQNNSENSEERIIDIRSVPNALMNEQNSKAELHNWEPPLYDSVGNHNHAGTMESHPHTNIHEELKEFLSGDLIEAEDNAKLMFGDDNSNPADYLLEFGSG
modifications: GST-His6 tag
notes: as for B1
B5: GFA1: yeast GST-HisX6 fusion protein on proteome chip (protein, UniProt P14742 2-717, looked up)
Glutamine--fructose-6-phosphat …: CGIFGYCNYLVERSRGEIIDTLVDGLQRLEYRGYDSTGIAIDGDEADSTFIYKQIGKVSALKEEITKQNPNRDVTFVSHCGIAHTRWATHGRPEQVNCHPQRSDPEDQFVVVHNGIITNFRELKTLLINKGYKFESDTDTECIAKLYLHLYNTNLQNGHDLDFHELTKLVLLELEGSYGLLCKSCHYPNEVIATRKGSPLLIGVKSEKKLKVDFVDVEFPEENAGQPEIPLKSNNKSFGLGPKKAREFEAGSQNANLLPIAANEFNLRHSQSRAFLSEDGSPTPVEFFVSSDAASVVKHTKKVLFLEDDDLAHIYDGELHIHRSRREVGASMTRSIQTLEMELAQIMKGPYDHFMQKEIYEQPESTFNTMRGRIDYENNKVILGGLKAWLPVVRRARRLIMIACGTSYHSCLATRAIFEELSDIPVSVELASDFLDRKCPVFRDDVCVFVSQSGETADTMLALNYCLERGALTVGIVNSVGSSISRVTHCGVHINAGPEIGVASTKAYTSQYIALVMFALSLSDDRVSKIDRRIEIIQGLKLIPGQIKQVLKLEPRIKKLCATELKDQKSLLLLGRGYQFAAALEGALKIKEISYMHSEGVLAGELKHGVLALVDENLPIIAFGTRDSLFPKVVSSIEQVTARKGHPIIICNENDEVWAQKSKSIDLQTLEVPQTVDCLQGLINIIPLQLMSYWLAVNKGIDVDFPRNLAKSVTVE
modifications: GST-His6 tag
notes: as for B1

What was measured:
Settings in all cases: liposome binding signal on yeast proteome chip, Cy3-streptavidin detection
[1] = test system: PI(3,4,5)P3 liposomes; experiment: Yeast proteome chip probed with PI(3,4,5)P3 liposomes
Excerpt: (§1) To identify PI-binding proteins in yeast, liposomes were used as probes because the liposome provides the most relevant physiological condition to assay the interactors. Six types of liposomes were used. Each contains phosphatidylcholine (“PC”) with 1% (w/w) N-(biotinoyl)-1,2-dihexadecanoyl-sn-glycero-3-phosphoethanolamine, triethylammonium salt (biotin DHPE). The biotinylated lipid serves as a label that can be detected by Cy3-streptavidin (21). In addition to PC, the five other liposomes contain either 5% (w/w) PI(3)P, PI(4)P, PI(3,4)P2, PI(4,5)P2, or PI(3,4,5)P3 (FIG. 3A).
(§2) The protein-liposome interaction was assayed as follows. Appropriate amounts of each lipid in chloroform were mixed and dried under nitrogen. The lipid mixture was resuspended in TBS buffer by vortexing. The liposomes were created by sonication. Blocked proteome chips were washed three to five times in PBS buffer, and the extra liquid on the glass surface was removed by tapping the slides vertically on a KIMWIPE™. 200 μl of liposome solution was added to the proteome chip and immediately covered by a hydrophobic plastic cover slip (GRACE BIO-LAB™, USA). After trapped air bubbles were removed, the chip was incubated in a humidity chamber at RT for one hour. To remove the cover slip, the chip was immersed into large volume of PBS buffer (50 ml), so that the slip would float away. The chip was then moved to a second PBS bath (>50 ml) and washed 3×5 min with shaking at RT. After removing extra liquid on the surface of the chip, about 100 μl of Cy3 or Cy5 conjugated streptavidin (PIERCE™, USA; 1:2000 to 1:4000 dilution) was added to the surface and covered by a hydrophobic plastic cover slip (GRACE BIO-LABS™, USA). The chip was incubated for greater than 30 min in the dark at RT. The chip was then washed as described above. To completely remove the liquid on the chip, the chip was spun to dryness at 1500-2000 rpm for 5-10 min at RT.
(§3) • 1. S. Fields, Y. Kohara, D. J. Lockhart, Proc. Natl. Acad. Sci. 96, 8825 (1999); A. Goffeau et al., Science 274, 563 (1996). • 2 P. Ross-Macdonald et al., Nature 402, 413 (1999); J. L., DeRisi, V. R. Iyer, P. O. Brown, Science 278, 680 (1997); E. A. Winzeler et al., Science 285, 901 (1999). P. Uetz et al., Nature 403, 623 (2000); T. Ito et al., Proc. Natl. Acad. Sci. USA. 97, 1143 (2000) • 3 H. Zhu, M. Snyder, Curr. Opin. Chem. Biol. 5, 40 (2001). • 4 M. R. Martzen et al., Science 286, 1153 (1999). • 5 H. Zhu et al., Nat. Genet. 26, 283 (2000). • 6 G. MacBeath, S. L. Schreiber, Science 289, 1760 (2000). • 7 A. Caveman, J. Cell Sci. 113, 3543 (2000). • 8 P. Arenkov et al., Anal. Biochem 278, 123 (2000). • 9 D. A. Mitchell, T. K. Marshall, R. J. Deschenes, Yeast 9, 715 (1993). The expression vector pEGH was created by inserting an RGS-HisX6 epitope tag between the GST gene and the polycloning site of pEG(KG). The yeast ORFs were cloned using the strategy described previously (5), except every step was done in a 96-well format. Plasmid DNAs confirmed by DNA sequencing were reintroduced into both yeast (Y258) and E. coli (DH5a). […] 0.1 mM calcium was present in buffers in all subsequent steps. The chip was washed three times with PBS at RT. Cy3-conjugated streptavidin (Jackson IR, USA) (1:5000 dilution) was added to the chip and incubated for 30 min at RT. After extensive washing, the chip was spun dry and scanned using a microarray scanner; the data was subsequently acquired with the GENEPIX™ array densitometry software (Axon, USA). • 12 S. S. Hook, A. R. Means, Annu. Rev. Pharmacol. Toxicol.41, 471 (2001). • 13 M. S. Cyert, R. Kunisawa, D. Kaim, J. Thorner, Proc. Natl. Acad. Sci. USA 88, 7376 (1991). • 14 D. A. Stirling, K. A. Welch, M. J. Stark, EMBO J. 13, 4329 (1994). • 15 F. Bohl, Kruse, EMBO J. 19, 5514 (2000); E. Bertrand et al., Mol. Cell 2, 437 (1998). • 16 D. C. Winter, E. Y. Choe, R. Li, Proc. Nat. Acad Sci. USA 96, 7288 (1999). • 17 C.

[2] = test system: PI(3,4)P2 liposomes; experiment: Yeast proteome chip probed with PI(3,4)P2 liposomes
Excerpt: as §1, §2, §3

[3] = test system: phosphatidylcholine (PC) liposomes; experiment: Yeast proteome chip probed with PC liposomes
Excerpt: as §1, §2, §3

[4] = test system: PI(4)P liposomes; experiment: Yeast proteome chip probed with PI(4)P liposomes
Excerpt: as §1, §2, §3

[5] = test system: PI(4,5)P2 liposomes; experiment: Yeast proteome chip probed with PI(4,5)P2 liposomes
Excerpt: as §1, §2, §3

Molecule	PI(3, 4, 5)P3 [1]	PI(3, 4)P2 [2]	PC [3]	PI(4)P [4]	PI(4, 5)P2 [5]
B1	8.77	6.59	5.28	25.26	22.21
B2	56.47	10.05	160.24	158.95	66.63
B3	5.62	11.62	−18.20	19.16	6.31
B4	−5.29	0.16	5.58	12.19	12.41
B5	−6.53	−8.63	−1.76	3.05	−7.62
